This is an account of results in article PMC11218506, “Characterization of the dual regulation by a c-di-GMP riboswitch Bc1 with a long expression platform from Bacillus thuringiensis”.

In data set [1] the target is T1, Zur (Bacillus thuringiensis BMB171, UniProt A0A0G3E7H1 1-137). As to the kind of experiment: EMSA; 100 uM MnCl2 per Methods; 50 mM Tris-HCl pH 7.5, 10 mM MgCl2, 1 mM DTT, 100 mM NaCl, 100 uM MnCl2; 25 C, 30 min; 6% native PAGE in 0.5x TBE; DNA stated as 50 uM. As to conditions: protein: recombinant; tags: C-terminal 6xHis (pET28b); chain copies: 2; label: none (YeaRed gel stain); blunt.

Data set [2] deals with T1, Zur. The data set can be described thus: EMSA; 100 uM MnCl2 (Mn2+ addition did not affect the interaction); 50 mM Tris-HCl pH 7.5, 10 mM MgCl2, 1 mM DTT, 100 mM NaCl, 100 uM MnCl2; 25 C, 30 min; 6% native PAGE in 0.5x TBE; DNA stated as 50 uM. As to conditions: protein: recombinant; tags: C-terminal 6xHis (pET28b); chain copies: 2; label: none (YeaRed gel stain); blunt.

B1: ck+ (dhbA positive control) (dsDNA)
DNA 1: TTATTTTTATAATTGATAATGATAATCATTATCAATAGATTGCGTTTTTC
DNA 2: GAAAAACGCAATCTATTGATAATGATTATCATTATCAATTATAAAAATAA
For the molecule B1, the binding result in data set [1] is recorded as “binds”.

B2: mutant Bc1 dual terminator coding sequence (dsDNA)
DNA 1: CCAATGCTTTTACATTGGCTTTTTTTTATTCTCGAACATGCCACACCCATAAGCAGCCT
DNA 2: AGGCTGCTTATGGGTGTGGCATGTTCGAGAATAAAAAAAAGCCAATGTAAAAGCATTGG
In the case of B2, the binding result in data set [1] is recorded as “no binding”.

B3: Bc1 dual terminator coding sequence (dsDNA)
DNA 1: CCAATGCTTTTACATTGGCTTTTTTTTATTCTCGAACATATTGAGAAACATTTTCAAAC
DNA 2: GTTTGAAAATGTTTCTCAATATGTTCGAGAATAAAAAAAAGCCAATGTAAAAGCATTGG
For B3, in data set [2], the binding result is recorded as “binds”.
